Reference: PMC7215387, “Comparison of Target Recognition by TRAF1 and TRAF2” (International Journal of Molecular Sciences, 2020)

Assays:
TRAF2 S454A mutant = experiment: Isothermal titration calorimetry (ITC), TRAF2 S454A mutant; format: binding; conditions: Supplementary Figure S1
Method: The binding affinities between TRADD-N and TRAF1 or TRAF2 were further quantitatively analyzed using surface plasmon resonance (SPR) experiments (Figure 3a,b). For the SPR experiment, each purified 6xHis-tagged TRAF1 and TRAF2 was coupled to Ni-NTA sensor chips using a His-tag affinity system. Different concentrations of TRADD-N protein, from 0.39 to 3.125 μM, were analyzed for binding to TRAF1 or TRAF2. […] Given their interaction patterns and affinity differences in complex formation, we modeled the structure of the TRAF1:TRADD-N complex by docking TRADD-N to a previously solved TRAF1 structure based on the TRAF2:TRADD-N complex to better understand the affinity differences (Figure 3c,d). According to the previously determined structure of the TRAF2:TRADD-N complex, two distinct binding regions, Region I and II, were identified (Figure 3e). The specific residues from TRAF2 that contributed to the interaction in Region I were T401, H406, L471, and P474. The interaction-contributing residues on TRAF2 in Region II were D445, R448, P449, D450, S454 and G468. All residues in TRAF2 that participated in the interaction with TRADD-N were conserved in TRAF1, except for S454, which was replaced by alanine in TRAF1 (Figure 3f). […]
A NanoITC (TA Instruments) was used for isothermal titration calorimetry experiments. […] Binding isotherms were analyzed by using the software provided by TA Instruments. […]

TRAF2 = biological target: T1, TRAF2 (Homo sapiens, UniProt Q12933); experiment: Native-PAGE complex formation with TRAF2; format: binding; conditions: 8% to 25% acrylamide gradient gels, Coomassie; 1 h at 4 °C; TRAF2 TRAF domain (305-501)
T1 construct: TRAF2 TRAF domain (amino acid residues 305-501); 6xHis (C); made in house; host or cells: E. coli BL21 (DE3)
T1 sequence (Q12933 305-501): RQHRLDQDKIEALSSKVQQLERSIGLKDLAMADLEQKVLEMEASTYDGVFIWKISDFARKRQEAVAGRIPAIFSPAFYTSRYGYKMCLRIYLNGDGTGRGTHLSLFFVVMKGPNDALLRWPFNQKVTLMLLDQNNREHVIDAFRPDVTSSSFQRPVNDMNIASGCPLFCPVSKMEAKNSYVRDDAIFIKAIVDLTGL
Text: TRADD is a well-known regulator of the TRAF function. The death domain located at the C-terminus of TRADD interacts with death-domain containing receptors and adaptor proteins including TNFR, receptor interacting protein 1 (RIP1) and Fas-associated death domain protein (FADD), while the N-terminal domain of TRADD (TRADD-N) interacts with the TRAF domain of TRAF2 (Figure 2a). Although several indirect interactions between TRAF1 and TRADD have been described, a direct interaction and direct analyses between TRAF1 and TRADD have not been reported. To directly study their interactions and binding properties, which may provide important clues for understanding TRAF-mediated signaling by TRADD, TRAFs and TRADD-N were purified, and initial interaction testing was performed by Native-PAGE. […] Although TRAF1 did interact with TRADD-N, this interaction was not as tight as with TRAF2 (Figure 2b). To further confirm this association, the interaction between the TRAFs and TRADD-N was further tested by size-exclusion chromatography. […]
The formation of complexes was assayed by native (non-denaturing) PAGE conducted on a PhastSystem (GE Healthcare) with pre-cast 8% to 25% acrylamide gradient gels (GE Healthcare). […] Complex formation was evaluated based on the appearance of newly formed bands or the disappearance of bands that were detected in single control protein bands.

B1: TRADD-N: N-terminal domain of TRADD (TRADD-N, amino acid residues 1-163) (protein)
chain: MAAGQNGHEEWVGSAYLFVESSLDKVVLSDAYAHPQQKVAVYRALQAALAESGGSPDVLQMLKIHRSDPQLIVQLRFCGRQPCGRFLRAYREGALRAALQRSLAAALAQHSVPLQLELRAGAERLDALLADEERCLSCILAQQPDRLRDEELAELEDALRNLK
modifications: left off: His6 (from the vector pET24a), C-terminal, state not stated
Kd (TRAF2 S454A mutant): ~55 nM
Native-PAGE band change on incubation with TRAF2 (TRAF2): the TRADD-N band was completely absent, forming a new complex band
